Common to all, as to experiment: SPR
On the technique in general: In SPR one partner is held on a chip, and binding of the other changes the refractive index at the surface.

The target of one assay is T1, recombinant human IFNα4 (human, UniProt P05014 24-189).
T1 chain: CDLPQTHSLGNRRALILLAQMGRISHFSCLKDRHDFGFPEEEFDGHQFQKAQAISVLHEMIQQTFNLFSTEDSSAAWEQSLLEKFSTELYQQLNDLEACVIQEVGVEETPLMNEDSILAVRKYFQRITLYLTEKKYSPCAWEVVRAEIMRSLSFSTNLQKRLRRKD

The target of the next assay is recombinant human IFNω (human, UniProt P05000 22-195).
Another assay addresses T2, recombinant human IFNα14 (human, UniProt P01570 24-189).
T2 chain: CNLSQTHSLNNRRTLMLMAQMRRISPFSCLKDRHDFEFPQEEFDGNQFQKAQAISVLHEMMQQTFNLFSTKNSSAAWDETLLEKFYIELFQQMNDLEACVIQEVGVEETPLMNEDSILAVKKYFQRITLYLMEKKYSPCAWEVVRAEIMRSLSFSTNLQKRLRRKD

Sequence of recombinant human IFNω (P05000 22-195): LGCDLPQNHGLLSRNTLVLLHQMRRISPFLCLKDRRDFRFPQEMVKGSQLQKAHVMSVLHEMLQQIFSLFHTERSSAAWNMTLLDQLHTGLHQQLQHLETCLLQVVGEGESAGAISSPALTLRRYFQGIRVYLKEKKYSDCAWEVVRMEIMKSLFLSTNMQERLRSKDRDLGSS

B1: 26B9, APS1/APECED patient-derived anti-IFN monoclonal antibody (antibody, V domains shown)
VH: QILLQESGPGLVKPTETLSLTCSVSGDSISDSSHYWAWIRQPPGKGPEWIGSVYFSSMTHYNPSLKSRVSISVDKPKNQFSLKVTSVTVADTATYYCARQALARVGAMNWFDPWGQGSLVTVSS
VL: DIIMTQSPDSLPVSLGEGVTINCKSSQSVFFTSSNKSCLAWYQQKPGKSPKLLIYWASTRQSGVPDRFRGSGSGTDFSLTITSLQAEDVAVYFCQQCQTSPPTFGGGTRLEIK
On to B1, for which the Kd – broadly, the free concentration of one partner at which half of the binding sites on the other are occupied at equilibrium, for simple one-to-one binding – with recombinant human IFNα4 was 0.0375 pM; with recombinant human IFNω it was 0.125 pM.

B2: 19D11, APS1/APECED patient-derived anti-IFN monoclonal antibody (antibody, V domains shown)
VH: QVQLVQSGAEVKRPGSSVRVSCRASGDTFSSYPISWVRQAPGQGLEWMGRILPALGVTNYAQNFRGRITITADKSPLTAYLELSSLRFEDTAVYYCASPSADIIPSILGTTLFAFWGQGSLVTVSS
VL: EIVLTQSPGTLSLSPGEGATLSCRASQNVSRHYLTWYQQKPGQSPRLLIYGGSSRATGVPDRFSGGGSGTDFTLTISRLEPEDFAVFYCQSYHSPPPVYTFGQGTKVEIK
For the molecule B2, the Kd with recombinant human IFNα4 was 0.263 pM; with recombinant human IFNα14 it was 0.0611 pM.

Source of the values: paper PMC4967814 (2016).
